Test results as given in patent US20250262210A1 (TRUSTEES OF COLUMBIA UNIVERSITY IN THE CITY OF NEW YORK, published 2025).

Assays:
Assay in all cases: IP/MS, LZTR1 wild type-FLAG, U87
HELZ = HELZ (human, UniProt P42694 1-1942, limits assumed)
Method in brief: (§1)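 Extracted peptides in 3% acetonitrile/0.1% formic acid ran on a 50 cm C18 column into an Orbitrap Fusion, with MaxQuant identification and spectral counting.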

SMPD4 = target: T1, SMPD4 (human, UniProt Q9NXE4 1-866, limits assumed)
T1 sequence (looked up): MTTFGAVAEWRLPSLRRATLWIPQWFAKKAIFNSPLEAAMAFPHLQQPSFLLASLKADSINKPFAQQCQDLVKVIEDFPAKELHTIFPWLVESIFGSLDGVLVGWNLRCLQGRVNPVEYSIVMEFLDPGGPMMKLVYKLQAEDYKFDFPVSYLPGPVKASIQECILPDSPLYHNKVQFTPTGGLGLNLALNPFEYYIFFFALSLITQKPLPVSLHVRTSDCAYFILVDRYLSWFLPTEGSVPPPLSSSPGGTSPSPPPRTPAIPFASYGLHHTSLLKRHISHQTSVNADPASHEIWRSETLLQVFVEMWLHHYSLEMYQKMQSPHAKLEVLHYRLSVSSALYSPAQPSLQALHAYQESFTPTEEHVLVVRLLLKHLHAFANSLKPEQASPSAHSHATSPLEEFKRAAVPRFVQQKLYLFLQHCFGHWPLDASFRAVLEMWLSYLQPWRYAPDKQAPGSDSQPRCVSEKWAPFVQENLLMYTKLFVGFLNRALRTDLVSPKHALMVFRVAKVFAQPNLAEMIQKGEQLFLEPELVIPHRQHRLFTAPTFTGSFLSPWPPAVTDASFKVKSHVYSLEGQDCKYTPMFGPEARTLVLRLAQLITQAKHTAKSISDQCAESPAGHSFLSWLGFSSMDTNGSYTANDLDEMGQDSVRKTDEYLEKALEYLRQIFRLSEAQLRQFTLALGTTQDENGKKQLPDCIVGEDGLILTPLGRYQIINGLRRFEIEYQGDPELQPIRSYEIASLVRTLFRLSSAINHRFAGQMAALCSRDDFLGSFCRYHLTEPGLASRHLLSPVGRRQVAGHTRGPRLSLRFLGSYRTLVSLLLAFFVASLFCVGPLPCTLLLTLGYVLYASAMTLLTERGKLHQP
Method in brief: as §1

NCAPG2 = target: T2, NCAPG2 (human, UniProt Q86XI2 1-1143, limits assumed)
T2 sequence (looked up): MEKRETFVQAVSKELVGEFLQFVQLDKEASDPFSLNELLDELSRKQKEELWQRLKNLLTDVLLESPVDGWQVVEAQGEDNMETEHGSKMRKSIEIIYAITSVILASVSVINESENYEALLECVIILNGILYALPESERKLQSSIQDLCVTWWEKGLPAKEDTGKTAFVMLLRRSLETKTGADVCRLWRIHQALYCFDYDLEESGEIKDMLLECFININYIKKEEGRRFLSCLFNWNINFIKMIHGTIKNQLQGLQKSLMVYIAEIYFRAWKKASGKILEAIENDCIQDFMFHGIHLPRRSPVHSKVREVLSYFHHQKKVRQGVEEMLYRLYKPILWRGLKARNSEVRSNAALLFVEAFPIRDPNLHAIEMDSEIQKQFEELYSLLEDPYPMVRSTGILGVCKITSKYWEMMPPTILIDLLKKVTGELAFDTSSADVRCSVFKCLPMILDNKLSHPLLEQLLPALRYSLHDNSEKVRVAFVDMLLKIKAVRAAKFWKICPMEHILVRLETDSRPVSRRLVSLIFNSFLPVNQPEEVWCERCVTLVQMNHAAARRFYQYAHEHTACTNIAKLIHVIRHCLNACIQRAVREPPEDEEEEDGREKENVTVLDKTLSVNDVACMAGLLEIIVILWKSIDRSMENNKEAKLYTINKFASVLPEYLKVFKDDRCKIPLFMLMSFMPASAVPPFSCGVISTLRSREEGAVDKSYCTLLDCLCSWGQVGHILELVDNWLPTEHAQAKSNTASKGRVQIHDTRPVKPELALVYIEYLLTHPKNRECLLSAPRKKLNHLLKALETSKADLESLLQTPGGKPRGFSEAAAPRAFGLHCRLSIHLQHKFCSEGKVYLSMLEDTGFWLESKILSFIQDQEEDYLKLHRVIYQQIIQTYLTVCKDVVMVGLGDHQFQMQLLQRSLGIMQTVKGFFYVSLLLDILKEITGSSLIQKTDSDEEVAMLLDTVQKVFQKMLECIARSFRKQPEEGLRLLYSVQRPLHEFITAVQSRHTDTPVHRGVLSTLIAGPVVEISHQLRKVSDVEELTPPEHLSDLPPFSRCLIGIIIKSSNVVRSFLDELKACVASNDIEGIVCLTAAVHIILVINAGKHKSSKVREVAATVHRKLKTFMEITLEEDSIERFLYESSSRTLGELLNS
Method in brief: as §1

EIF2AK4 = EIF2AK4 (human, UniProt Q9P2K8 1-1649, limits assumed)
Method in brief: as §1

TTC27 = TTC27 (human, UniProt Q6P3X3 1-843)
Method in brief: as §1

Chain of EIF2AK4 (Q9P2K8 whole entry): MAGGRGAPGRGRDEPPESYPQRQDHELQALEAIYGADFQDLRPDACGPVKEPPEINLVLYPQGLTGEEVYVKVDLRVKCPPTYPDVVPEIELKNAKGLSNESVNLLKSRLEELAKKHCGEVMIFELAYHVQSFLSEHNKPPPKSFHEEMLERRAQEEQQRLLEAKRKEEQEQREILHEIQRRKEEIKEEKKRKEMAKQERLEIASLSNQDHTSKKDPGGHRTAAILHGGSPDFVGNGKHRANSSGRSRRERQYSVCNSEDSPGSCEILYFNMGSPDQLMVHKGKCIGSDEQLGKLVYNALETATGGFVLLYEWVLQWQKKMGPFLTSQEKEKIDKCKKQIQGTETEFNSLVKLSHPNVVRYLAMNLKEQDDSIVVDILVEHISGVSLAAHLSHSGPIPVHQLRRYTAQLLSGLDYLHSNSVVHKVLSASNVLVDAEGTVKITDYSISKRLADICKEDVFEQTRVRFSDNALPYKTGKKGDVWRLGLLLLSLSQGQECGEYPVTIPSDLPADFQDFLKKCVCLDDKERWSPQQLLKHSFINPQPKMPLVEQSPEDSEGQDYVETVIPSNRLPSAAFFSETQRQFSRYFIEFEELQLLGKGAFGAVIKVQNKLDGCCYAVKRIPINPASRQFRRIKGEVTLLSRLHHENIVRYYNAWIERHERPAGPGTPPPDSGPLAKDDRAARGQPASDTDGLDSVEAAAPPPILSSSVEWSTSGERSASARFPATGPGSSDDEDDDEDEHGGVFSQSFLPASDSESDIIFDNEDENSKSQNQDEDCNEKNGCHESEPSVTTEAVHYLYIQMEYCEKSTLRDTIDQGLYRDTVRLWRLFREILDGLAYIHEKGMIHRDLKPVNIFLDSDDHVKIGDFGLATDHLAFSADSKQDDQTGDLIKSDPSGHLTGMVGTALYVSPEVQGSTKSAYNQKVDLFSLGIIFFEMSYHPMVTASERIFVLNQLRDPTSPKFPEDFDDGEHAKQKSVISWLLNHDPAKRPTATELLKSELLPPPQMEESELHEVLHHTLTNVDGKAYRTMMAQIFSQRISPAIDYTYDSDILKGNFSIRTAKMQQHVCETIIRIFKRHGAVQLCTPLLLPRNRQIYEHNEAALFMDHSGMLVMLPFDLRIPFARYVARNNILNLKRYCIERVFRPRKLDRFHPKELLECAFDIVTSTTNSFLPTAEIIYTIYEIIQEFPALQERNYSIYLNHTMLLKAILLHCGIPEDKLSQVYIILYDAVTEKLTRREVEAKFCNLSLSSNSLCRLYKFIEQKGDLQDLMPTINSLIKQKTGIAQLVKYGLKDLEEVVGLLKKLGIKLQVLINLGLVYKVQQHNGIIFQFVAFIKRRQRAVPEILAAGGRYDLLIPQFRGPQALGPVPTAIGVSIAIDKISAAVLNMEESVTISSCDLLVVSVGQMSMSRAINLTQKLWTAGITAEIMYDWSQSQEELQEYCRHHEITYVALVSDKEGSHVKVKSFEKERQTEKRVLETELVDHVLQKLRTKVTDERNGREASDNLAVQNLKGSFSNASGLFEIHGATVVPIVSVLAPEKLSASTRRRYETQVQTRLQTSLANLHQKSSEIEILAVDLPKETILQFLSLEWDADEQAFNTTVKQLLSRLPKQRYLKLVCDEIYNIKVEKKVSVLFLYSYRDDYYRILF
Chain of HELZ (P42694 whole entry, the tested form may be a part): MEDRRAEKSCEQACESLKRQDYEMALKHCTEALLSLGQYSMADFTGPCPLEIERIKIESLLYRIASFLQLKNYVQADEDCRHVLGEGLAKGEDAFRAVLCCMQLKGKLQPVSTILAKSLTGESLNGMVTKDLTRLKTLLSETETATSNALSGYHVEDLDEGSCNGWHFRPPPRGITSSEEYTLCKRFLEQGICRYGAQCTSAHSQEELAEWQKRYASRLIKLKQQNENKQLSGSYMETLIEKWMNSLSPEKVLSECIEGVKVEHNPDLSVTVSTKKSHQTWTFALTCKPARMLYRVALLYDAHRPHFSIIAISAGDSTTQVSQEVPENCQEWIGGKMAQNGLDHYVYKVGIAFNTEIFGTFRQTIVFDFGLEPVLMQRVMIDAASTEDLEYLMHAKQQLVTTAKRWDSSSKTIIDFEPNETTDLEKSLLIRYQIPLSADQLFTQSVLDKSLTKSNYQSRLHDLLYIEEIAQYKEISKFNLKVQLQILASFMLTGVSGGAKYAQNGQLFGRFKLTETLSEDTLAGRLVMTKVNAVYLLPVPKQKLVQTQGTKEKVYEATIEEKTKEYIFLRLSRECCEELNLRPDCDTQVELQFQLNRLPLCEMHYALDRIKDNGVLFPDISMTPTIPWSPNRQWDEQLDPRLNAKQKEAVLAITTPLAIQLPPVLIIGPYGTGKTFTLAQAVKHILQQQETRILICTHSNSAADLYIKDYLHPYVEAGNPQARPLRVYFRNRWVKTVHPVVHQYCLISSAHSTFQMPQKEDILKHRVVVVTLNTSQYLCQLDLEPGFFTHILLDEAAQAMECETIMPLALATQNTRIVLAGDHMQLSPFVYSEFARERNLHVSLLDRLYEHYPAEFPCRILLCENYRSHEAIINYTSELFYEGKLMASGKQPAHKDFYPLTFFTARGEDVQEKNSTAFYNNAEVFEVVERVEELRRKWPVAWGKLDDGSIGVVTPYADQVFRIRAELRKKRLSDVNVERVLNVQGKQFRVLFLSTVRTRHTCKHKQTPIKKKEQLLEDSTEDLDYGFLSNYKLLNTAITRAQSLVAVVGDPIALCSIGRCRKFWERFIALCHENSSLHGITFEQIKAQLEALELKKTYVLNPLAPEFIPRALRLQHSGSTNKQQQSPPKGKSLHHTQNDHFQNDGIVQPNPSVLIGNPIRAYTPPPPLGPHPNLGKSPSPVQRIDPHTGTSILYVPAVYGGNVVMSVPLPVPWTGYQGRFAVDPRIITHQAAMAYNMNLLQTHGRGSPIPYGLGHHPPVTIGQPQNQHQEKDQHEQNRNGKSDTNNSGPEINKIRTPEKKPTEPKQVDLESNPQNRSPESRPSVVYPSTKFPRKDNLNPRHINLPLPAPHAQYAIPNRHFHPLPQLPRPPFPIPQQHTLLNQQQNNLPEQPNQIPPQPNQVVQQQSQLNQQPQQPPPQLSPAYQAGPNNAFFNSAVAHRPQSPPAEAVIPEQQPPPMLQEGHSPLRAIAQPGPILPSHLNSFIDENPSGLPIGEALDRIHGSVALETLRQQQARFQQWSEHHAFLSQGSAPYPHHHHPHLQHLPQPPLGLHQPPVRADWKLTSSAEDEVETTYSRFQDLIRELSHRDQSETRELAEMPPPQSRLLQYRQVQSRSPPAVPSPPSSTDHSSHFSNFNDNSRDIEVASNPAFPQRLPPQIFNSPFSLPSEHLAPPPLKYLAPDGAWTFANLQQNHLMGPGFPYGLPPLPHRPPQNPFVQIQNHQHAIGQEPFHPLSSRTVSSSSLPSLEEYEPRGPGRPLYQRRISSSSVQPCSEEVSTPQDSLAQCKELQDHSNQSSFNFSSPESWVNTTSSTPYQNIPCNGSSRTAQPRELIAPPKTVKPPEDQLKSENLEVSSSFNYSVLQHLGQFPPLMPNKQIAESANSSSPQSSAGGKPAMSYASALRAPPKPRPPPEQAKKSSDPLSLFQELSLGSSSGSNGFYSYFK

- binding result (HELZ): binds
- binding result (SMPD4): binds
- binding result (NCAPG2): binds
- binding result (EIF2AK4): binds
- binding result (TTC27): binds
B1: LZTR1-FLAG (other, human, UniProt Q8N653 1-840, looked up)
chain: MAGPGSTGGQIGAAALAGGARSKVAPSVDFDHSCSDSVEYLTLNFGPFETVHRWRRLPPCDEFVGARRSKHTVVAYKDAIYVFGGDNGKTMLNDLLRFDVKDCSWCRAFTTGTPPAPRYHHSAVVYGSSMFVFGGYTGDIYSNSNLKNKNDLFEYKFATGQWTEWKIEGRLPVARSAHGATVYSDKLWIFAGYDGNARLNDMWTIGLQDRELTCWEEVAQSGEIPPSCCNFPVAVCRDKMFVFSGQSGAKITNNLFQFEFKDKTWTRIPTEHLLRGSPPPPQRRYGHTMVAFDRHLYVFGGAADNTLPNELHCYDVDFQTWEVVQPSSDSEVGGAEVPERACASEEVPTLTYEERVGFKKSRDVFGLDFGTTSAKQPTQPASELPSGRLFHAAAVISDAMYIFGGTVDNNIRSGEMYRFQFSCYPKCTLHEDYGRLWESRQFCDVEFVLGEKEECVQGHVAIVTARSRWLRRKITQARERLAQKLEQEAAPVPREAPGVAAGGARPPLLHVAIREAEARPFEVLMQFLYTDKIKYPRKGHVEDVLLIMDVYKLALSFQLCRLEQLCRQYIEASVDLQNVLVVCESAARLQLSQLKEHCLNFVVKESHFNQVIMMKEFERLSSPLIVEIVRRKQQPPPRTPLDQPVDIGTSLIQDMKAYLEGAGAEFCDITLLLDGHPRPAHKAILAARSSYFEAMFRSFMPEDGQVNISIGEMVPSRQAFESMLRYIYYGEVNMPPEDSLYLFAAPYYYGFYNNRLQAYCKQNLEMNVTVQNVLQILEAADKTQALDMKRHCLHIIVHQFTKVSKLPTLRSLSQQLLLDIIDSLASHISDKQCAELGADI
notes: Expressed in HEK 293T, HeLa or U87 cells; used as cell lysate; also called LZTR1 wild type-FLAG; LZTR1 WT; not shown: FLAG tag at the C-terminus
